Assay results: article PMC6123778, “Structural rearrangements in the C-terminal domain homolog of Orange Carotenoid Protein are crucial for carotenoid transfer” (Communications Biology, 2018)
Blank lines part the entries; values can stand above or below the molecule they belong to.

Assays:
[1] = target: T1, AnaCTDH (CTDH, C-terminal domain homolog of OCP, clade 2) (Nostoc sp. PCC 7120 = FACHB-418, UniProt A0ACD6B996, C103F/DEL126-136); assay: absorbance spectra after uptake from canthaxanthin-containing E. coli membranes; assay type: binding; settings: 12 µM apo-dimer, membranes with 48 µM canthaxanthin, 33 °C, 1 h, darkness; C-terminal tail deleted
T1 construct: gene all4940; C-terminal His-tag (plasmid pCDF-CTDHAna-C103F), expressed in E. coli; dimer about 34 kDa; the wild type was crystallised in apo form

[2] = target: T2, AnaCTDH (CTDH, C-terminal domain homolog of OCP, clade 2) (Nostoc sp. PCC 7120 = FACHB-418, UniProt A0ACD6B996, C103F); assay: as above; assay type: binding; settings: 12 µM apo-dimer, membranes with 48 µM canthaxanthin, 33 °C, 1 h, darkness
T2 construct: gene all4940; C-terminal His-tag (plasmid pCDF-CTDHAna-C103F), expressed in E. coli; dimer about 34 kDa; the wild type was crystallised in apo form

[3] = target: Anabaena (Nostoc) PCC 7120 apo-CTDH (carotenoid-free C-terminal domain homolog of Orange Carotenoid Protein) (Anabaena (Nostoc) PCC 7120); assay: native gel or EMSA; purified apo-AnaCTDH on 15% native polyacrylamide gel, pH 8 (25 mM Tris-HCl, 192 mM glycine), non-reducing
[4] = target: Anabaena (Nostoc) PCC 7120 apo-CTDH (carotenoid-free C-terminal domain homolog of Orange Carotenoid Protein) (Anabaena (Nostoc) PCC 7120); assay: SEC; apo-AnaCTDH treated with 2 M urea overnight, preparative column, 40 mM Tris-HCl pH 8 with 2 M urea
[5] = target: the molecule itself; assay: SAXS; batch mode, 270 µM per monomer, 20 mM Tris-HCl pH 7.6, 150 mM NaCl, 0.1 mM EDTA, 2 mM dithiothreitol, 3% glycerol

T2 sequence (A0ACD6B996 entry or part of it C103F): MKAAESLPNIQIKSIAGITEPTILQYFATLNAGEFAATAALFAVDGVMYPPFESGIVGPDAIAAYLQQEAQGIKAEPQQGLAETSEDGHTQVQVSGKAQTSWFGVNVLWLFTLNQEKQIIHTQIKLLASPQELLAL
T1 sequence (A0ACD6B996 entry or part of it C103F/DEL126-136): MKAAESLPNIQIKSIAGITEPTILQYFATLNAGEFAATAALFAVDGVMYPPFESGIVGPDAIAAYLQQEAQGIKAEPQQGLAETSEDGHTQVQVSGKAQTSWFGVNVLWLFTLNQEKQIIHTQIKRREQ

% holo-protein formed [1]: 20(±5) %
% holo-protein formed [2]: 100%
Molecule: CC1=C(/C=C/C(C)=C/C=C/C(C)=C/C=C/C=C(C)/C=C/C=C(C)/C=C/C2=C(C)C(=O)CCC2(C)C)C(C)(C)CCC1=O [canthaxanthin]

stoichiometry N [3]: 2
stoichiometry N [4]: 2
Molecule: Anabaena (Nostoc) PCC 7120 apo-CTDH (carotenoid-free C-terminal domain homolog of Orange Carotenoid Protein) (natural protein)

B1: Apo-CTD from Synechocystis OCP (residues 165-317) (domain or fragment, Synechocystis 6803, UniProt P74102 165-317, looked up)
chain: AGKDGKRIAEPVVPPQDTASRTKVSIEGVTNATVLNYMDNLNANDFDTLIELFTSDGALQPPFQRPIVGKENVLRFFREECQNLKLIPERGVTEPAEDGFTQIKVTGKVQTPWFGGNVGMNIAWRFLLNPEGKIFFVAIDLLASPKELLNFAR
notes: C-terminal domain of the Orange Carotenoid Protein of Synechocystis 6803, residues 165-317 (of 317); 18.7 kDa construct with an uncleavable N-terminal hexahistidine tag; carotenoid-free; The SAXS modelling counts 23 flexible N-terminal residues (tag and linker included) and 12 C-terminal ones; also called apo-OCP-CTD; CTD-OCP; not shown: His6, N-terminal, kept
stoichiometry N [5]: 2
